Test results as given in the supplement of paper PMC10567573.

B1: CDC25A (parent)
chain: TVAGKHQDLKYISPEIMASVLNGK
B2: TEKT4 (parent)
chain: LREKLLEAEQSLRNLEDIHMSLEK

Variants of: B1
Assay: protein stability index of a GFP-peptide fusion (GPS, HEK-293T) (PSI 1-6); higher = more stable
Conditions: c terminus: a fixed tail appended
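Further: lentivirally expressed fusions sorted by FACS into six bins by GFP to DsRed ratio, PSI derived from sequencing read proportions per bin multiplied by bin number.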

Protein stability index of substitutions, site by site:
T1: I 2.6; C 3.07; F 1.9; L 2.15; N 3.69; A 3.23; E 3.45; R 2.52; D 3.29; W 2.06; K 3.17; H 2.89; P 3.34; Q 3.22; V 2.52; Y 3.42; G 3.06; M 2.34; S 3.14
A3: M 2.82; D 3.74; C 2.47; E 3.39; N 2.79; H 2.85; K 3.41; F 2.56; G 3.14; L 2.69; I 2.61
V2: P 3.51; C 3.32; F 2.94; W 2.55; S 3.28; M 3.11; T 3.41; E 3.68; R 3.21; D 3.89; I 2.91; Y 2.79; H 3.33; K 2.92; Q 3.35; A 3.28; G 3.33; L 2.96; N 3.11

Variants of: B2
Assay: as above
Conditions: c terminus: a fixed tail appended

Protein stability index, by site and new letter:
I18: S 3.84; E 1.69; Y 2.3; M 1.95; A 2.81; V 3.21; C 2.63; K 3.16; W 3.13
S21: D 1.9; K 2.37; F 2.63; L 1.59; E 2.35; V 2.35; T 2.81; R 3.24; M 1.75
E3: G 1.96; K 2.1; C 1.96; S 2.47; R 2.69; W 1.81; M 2.88; Q 2.82; A 2.29; N 2.27; P 2.24; T 1.63; F 2.46; H 2.71
K4: N 3.27; G 3.45; T 3.9; R 2.88; H 3.01; W 1.74; D 4.01; S 2.63; I 2.36; C 2.54; M 1.76; F 1.43; Y 2.33; V 2.51; P 3.54
E7: V 2.56; I 2.06; Y 2.08; C 2.17; T 2.93; S 2.42; G 3.75; N 2.39; Q 2.35; M 2.38; W 1.75; H 3.6; F 2.5; L 1.75
E16: V 2.06; S 2.25; R 2.12; T 2.21; L 1.47; Q 2.15; P 2.71; W 1.18; G 2.37; C 1.33; I 2.7; H 1.59; A 1.41; D 2.35
M20: I 2.86; C 3.03; F 1.72; N 2.25; Q 1.79; D 2.71; K 2.07; R 2.36; G 3.51; E 2.17; W 2.55
L6: E 2.84; S 4.23; M 2.83; A 3.11; P 5.19; V 2.65; F 2.34; W 2.23; K 3.31; H 3.27; N 2.89; G 2.65; Q 2.91; D 3.54; Y 2.61
L1: N 4.65; M 3.12; Y 2.61; C 3.07; V 1.98; G 4.38; T 4.24; H 3.92; E 5.12; F 1.74; A 3.67; Q 4.67
S11: Q 2.33; W 1.48; F 1.96; A 1.5; I 4.94; L 1.83; K 2.08; T 2.55; D 2.57; G 2.28; Y 1.83; H 2.75; M 1.05
H19: F 1.83; G 2.02; T 2.63; E 2.91; P 3.26; M 2.79; V 2.51; R 2.42; A 1.76; I 1.81; S 3.43; N 2.93
L12: M 2.97; Y 2.03; W 1.79; F 1.69; S 3.62; N 4.57; R 3.02; P 4.6
L15: D 1.55; R 2.38; A 3.2; M 2.56; C 2.81; E 2.71; H 3.22; S 3.36; F 3.29; Q 2.64; W 1.93; N 2.65; I 2.64; T 2.47
E23: L 2.65; T 1.71; K 2.74; N 1.47; A 3.45; V 2.07; I 1.88; G 1.58; M 2.39; Y 1.93; R 3.15
E9: C 1.85; H 2.58; I 1.75; T 2.44; L 2.77; A 2.38; F 1.37; Y 2.06; S 2.61; W 2.06; R 3.25; N 3.15; V 2.05; P 3.52
N14: C 2.26; K 2.27; G 2.71; H 1.77; V 2.56; P 2.04; S 2.07; D 2.27
D17: T 2.27; W 1.76; A 2.31; G 2.81; N 1.62; Q 2.23; K 2.32; H 2.29; S 2.33; L 1.89; P 2.7; Y 1.45
Q10: L 3.22; W 1.98; D 1.92; T 2.77; H 2.23; I 1.34; Y 1.85; K 2.37; A 3.49; R 2.69; P 4.65; S 2.79
R2: N 1.86; M 1.89; C 1.48; G 2.34; Q 1.9; F 1.16; S 2.33; L 1.93; P 3.11; I 2.41; D 2.72; T 2.83; H 2.02
R13: S 1.89; G 2.22; K 2.22; F 2.11; I 2.6; Y 2.11; H 3.38; C 2.21; D 3.69; W 2.09; L 2.18
L22: S 2.65; H 2.89; Y 2.08; T 3.05; A 3.01; E 2.98; C 3.73; Q 2.33; M 2.7; W 1.55
L5: I 2.72; H 4.08; Y 3.86; T 4.67; C 2.44; M 3.2; A 4.49; N 5.13; P 4.75; E 5.05; D 5.1; G 4.83; R 4.49; F 3.27; K 4.93
A8: I 1.48; L 1.63; E 3.99; G 2.2; D 2.86; F 2.52; R 3.92; Y 3.58; W 1.8; T 2.61; Q 2.72
K24: N 2.13; P 2.03; Q 2.39; G 2.52; Y 1.68; S 2.35; R 2.44; H 4
